Experimental findings from US6623738 (University of California, dated 2003) are described below.

The target of assay [1] is T1, mouse neuropilin-2(a0), myc-tagged, expressed in COS-7 cells (mouse, UniProt O35375 21-931).
T1 construct: also called SR2(a)0; m-npn-2
T1 sequence: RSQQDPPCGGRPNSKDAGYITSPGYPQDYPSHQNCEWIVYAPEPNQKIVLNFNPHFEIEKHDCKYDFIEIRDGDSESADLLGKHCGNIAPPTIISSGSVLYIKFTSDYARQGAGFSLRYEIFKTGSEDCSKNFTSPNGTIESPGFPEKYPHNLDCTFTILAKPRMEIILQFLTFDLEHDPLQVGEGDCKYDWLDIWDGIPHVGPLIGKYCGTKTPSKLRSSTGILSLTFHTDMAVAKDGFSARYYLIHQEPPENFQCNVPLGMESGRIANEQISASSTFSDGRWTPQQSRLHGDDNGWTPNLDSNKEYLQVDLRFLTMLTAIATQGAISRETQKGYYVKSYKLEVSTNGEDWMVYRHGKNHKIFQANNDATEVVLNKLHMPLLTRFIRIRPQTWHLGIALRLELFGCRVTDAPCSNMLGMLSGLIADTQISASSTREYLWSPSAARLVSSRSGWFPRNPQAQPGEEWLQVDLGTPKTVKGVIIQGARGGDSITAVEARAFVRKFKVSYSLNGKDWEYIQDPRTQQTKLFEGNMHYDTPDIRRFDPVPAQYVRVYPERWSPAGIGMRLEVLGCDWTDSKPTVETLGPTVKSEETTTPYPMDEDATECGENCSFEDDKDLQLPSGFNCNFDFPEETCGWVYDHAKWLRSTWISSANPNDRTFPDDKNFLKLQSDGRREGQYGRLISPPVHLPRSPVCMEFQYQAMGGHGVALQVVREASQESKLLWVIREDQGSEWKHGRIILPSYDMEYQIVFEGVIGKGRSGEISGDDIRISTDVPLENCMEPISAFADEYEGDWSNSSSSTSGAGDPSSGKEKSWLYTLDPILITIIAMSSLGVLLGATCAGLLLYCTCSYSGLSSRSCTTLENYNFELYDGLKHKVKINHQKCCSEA
Put plainly: AP fusion binding to transfected COS cells.

Assay [2] addresses T2, mouse neuropilin-2(a5), myc-tagged, expressed in COS-7 cells (mouse, UniProt O35375 21-931).
T2 construct: also called a5 isoform of neuropilin-2; SR2(a)5
T2 sequence: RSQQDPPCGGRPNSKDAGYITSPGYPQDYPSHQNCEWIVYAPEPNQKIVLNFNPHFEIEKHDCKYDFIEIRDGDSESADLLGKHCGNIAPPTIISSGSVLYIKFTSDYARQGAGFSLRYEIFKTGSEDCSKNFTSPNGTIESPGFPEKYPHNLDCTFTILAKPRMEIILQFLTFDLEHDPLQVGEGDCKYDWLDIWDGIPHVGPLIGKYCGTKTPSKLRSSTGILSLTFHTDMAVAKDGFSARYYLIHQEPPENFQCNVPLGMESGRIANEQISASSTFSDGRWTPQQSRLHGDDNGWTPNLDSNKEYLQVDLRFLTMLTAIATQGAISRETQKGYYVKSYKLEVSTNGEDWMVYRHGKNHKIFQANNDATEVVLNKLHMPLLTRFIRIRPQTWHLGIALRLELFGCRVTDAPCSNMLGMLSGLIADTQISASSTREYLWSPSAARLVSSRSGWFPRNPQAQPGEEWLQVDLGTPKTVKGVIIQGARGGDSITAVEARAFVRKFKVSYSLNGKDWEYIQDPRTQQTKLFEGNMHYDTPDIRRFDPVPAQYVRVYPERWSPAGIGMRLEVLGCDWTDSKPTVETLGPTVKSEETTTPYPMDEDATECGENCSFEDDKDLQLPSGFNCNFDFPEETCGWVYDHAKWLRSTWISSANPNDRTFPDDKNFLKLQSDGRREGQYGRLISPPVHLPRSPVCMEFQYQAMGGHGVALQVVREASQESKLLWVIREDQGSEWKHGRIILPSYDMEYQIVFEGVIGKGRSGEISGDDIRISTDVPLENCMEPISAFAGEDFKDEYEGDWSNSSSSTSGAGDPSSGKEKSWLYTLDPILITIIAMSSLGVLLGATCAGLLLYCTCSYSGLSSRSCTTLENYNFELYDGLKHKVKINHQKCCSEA
Put plainly: AP fusion binding to transfected COS cells.

Assay [3] addresses T3, mouse neuropilin-2(a22), myc-tagged, expressed in COS-7 cells (mouse, UniProt O35375 21-931).
T3 construct: also called SR2(a)22
T3 sequence: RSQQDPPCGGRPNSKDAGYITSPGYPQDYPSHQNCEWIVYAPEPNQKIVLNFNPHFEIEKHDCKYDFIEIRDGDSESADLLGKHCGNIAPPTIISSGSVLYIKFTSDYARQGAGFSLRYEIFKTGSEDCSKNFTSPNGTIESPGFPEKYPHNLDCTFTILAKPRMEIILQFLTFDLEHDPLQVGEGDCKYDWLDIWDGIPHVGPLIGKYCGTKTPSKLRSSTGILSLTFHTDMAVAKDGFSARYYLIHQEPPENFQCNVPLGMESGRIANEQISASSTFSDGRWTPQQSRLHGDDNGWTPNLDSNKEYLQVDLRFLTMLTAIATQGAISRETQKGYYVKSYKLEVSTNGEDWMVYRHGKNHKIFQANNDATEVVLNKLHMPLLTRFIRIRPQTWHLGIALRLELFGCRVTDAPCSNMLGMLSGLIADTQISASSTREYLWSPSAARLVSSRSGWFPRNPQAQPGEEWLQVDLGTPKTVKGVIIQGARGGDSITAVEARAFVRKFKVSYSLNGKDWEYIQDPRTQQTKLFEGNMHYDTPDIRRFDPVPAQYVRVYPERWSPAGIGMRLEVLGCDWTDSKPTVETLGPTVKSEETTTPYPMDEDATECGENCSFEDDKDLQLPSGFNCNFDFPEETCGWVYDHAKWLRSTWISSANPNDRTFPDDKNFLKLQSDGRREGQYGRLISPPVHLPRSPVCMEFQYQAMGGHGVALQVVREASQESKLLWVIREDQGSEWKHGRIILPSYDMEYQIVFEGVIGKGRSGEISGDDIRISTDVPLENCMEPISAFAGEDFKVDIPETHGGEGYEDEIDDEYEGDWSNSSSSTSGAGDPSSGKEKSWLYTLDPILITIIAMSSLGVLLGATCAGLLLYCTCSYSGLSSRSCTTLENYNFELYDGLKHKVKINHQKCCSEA
Put plainly: AP fusion binding to transfected COS cells.

Assay [4] concerns the target T2, mouse neuropilin-2(a5), myc-tagged, …. The assay can be described thus: equilibrium binding of AP fusion to transfected COS cells (a5 isoform), Hill fit. As for the experimental part: (§1) FIGS. 5A–5C. Equilibrium binding of semaphorin-AP fusion proteins to neuropilin-expressing cells. Transfected or control COS cells were incubated with concentrated media containing the indicated concentrations of semaphorin-AP fusion proteins. AP activity derived from bound fusion proteins was measured […] at 405 nm; specific binding was obtained after subtraction of background from control cells. Specific binding curves to cells expressing neuropilin-1 (closed circles) or […] are shown for Sema III-AP (A), Sema E-AP (B), and Sema IV-AP (C). Dissociation constants for interaction with neuropilin-2-expressing cells were 0.29 for Sema E-AP and 0.09 nM for Sema IV-AP.
(§2) We estimated the binding affinity of the AP fusions of Sema III, Sema E and Sema IV to cells expressing neuropilin-1 or neuropilin-2 in equilibrium binding experiments. For these experiments, we used the a5 isoform of neuropilin-2. […] Those for Sema IV binding to neuropilin-1 and neuropilin-2 were 30 nM and 5 nM, respectively. […] Similar Kd values were obtained using the b5 isoform of neuropilin-2 and the degree of binding of different semaphorins to cells all isoforms tested appeared similar.

Assay [5] has as its target T4, neuropilin-1 transiently expressed in COS-7 cells (Rattus norvegicus (Rat), UniProt Q9QWJ9 22-922).
T4 construct: also called npn-1; SR1
Put plainly: equilibrium binding of AP fusion to transfected COS cells, Hill fit. As for the experimental part: as §1, §2

Assay [6] has as its target T2, mouse neuropilin-2(a5), myc-tagged, …. Put plainly: equilibrium binding of AP fusion to neuropilin-2-expressing COS cells (figure legend). As for the experimental part: as §1, §2

B1: AP fusion with Drosophila D-Sema II (ligand, UniProt Q24323 26-724, looked up)
chain: DYENTWNFYYERPCCTGNDQGNNNYGKHGADHVREFNCGKLYYRTFHMNEDRDTLYVGAMDRVFRVNLQNISSSNCNRDVINLEPTRDDVVSCVSKGKSQIFDCKNHVRVIQSMDQGDRLYVCGTNAHNPKDYVIYANLTHLPRSEYVIGVGLGIAKCPYDPLDNSTAIYVENGNPGGLPGLYSGTNAEFTKADTVIFRTDLYNTSAKRLEYKFKRTLKYDSKWLDKPNFVGSFDIGEYVYFFFRETAVEYINCGKAVYSRIARVCKKDVGGKNLLAHNWATYLKARLNCSISGEFPFYFNEIQSVYQLPSDKSRFFATFTTSTNGLIGSAVCSFHINEIQAAFNGKFKEQSSSNSAWLPVLNSRVPEPRPGTCVNDTSNLPDTVLNFIRSHPLMDKAVNHEHNNPVYYKRDLVFTKLVVDKIRIDILNQEYIVYYVGTNLGRIYKIVQYYRNGESLSKLLDIFEVAPNEAIQVMEISQTRKSLYIGTDHRIKQIDLAMCNRRYDNCFRCVRDPYCGWDKEANTCRPYELDLLQDVANETSDICDSSVLKKKIVVTYGQSVHLGCFVKIPEVLKNEQVTWYHHSKDKGRYEIRYSPTKYIETTERGLVVVSVNEADGGRYDCHLGGSLLCSYNITVDAHRCTPPNKSNDYQKIYSDWCHEFEKYKTAMKSWEKKQAQCSTRQNFSSNQHPNEIFRKPNV
notes: also called Drosophila Sema II; not shown: alkaline phosphatase (AP) reporter
On to B1, for which the binding result in assay [1], in assay [2] and in assay [3] was “no binding” throughout.

B2: Sema E-AP fusion protein (mouse Sema E fused to alkaline phosphatase) (ligand, UniProt Q62181 21-751, looked up)
chain: GSSQPQARVYLTFDELRETKTSEYFSLSHQQLDYRILLMDEDQDRIYVGSKDHILSLNINNISQEPLSVFWPASTIKVEECKMAGKDPTHGCGNFVRVIQTFNRTHLYVCGSGAFSPVCTYLNRGRRSEDQVFMIDSKCESGKGRCSFNPNVNTVSVMINEELFSGMYIDFMGTDAAIFRSLTKRNAVRTDQHNSKWLSEPMFVDAHVIPDGTDPNDAKVYFFFKERLTDNNRSTKQIHSMIARICPNDTGGQRSLVNKWTTFLKARLVCSVTDEDGPETHFDELEDVFLLETDNPRTTLVYGIFTTSSSVFKGSAVCVYHLSDIQTVFNGPFAHKEGPNHQLISYQGRIPYPRPGTCPGGAFTPNMRTTKDFPDDVVTFIRNHPLMYNSIYPIHRRPLIVRIGTDYKYTKIAVDRVNAADGRYHVLFLGTDRGTVQKVVVLPTNSSASGELILEELEVFKNHVPITTMKISSKKQQLYVSSNEGVSQVSLHRCHIYGTACADCCLARDPYCAWDGHSCSRFYPTGKRRSRRQDVRHGNPLTQCRGFNLKAYRNAAEIVQYGVRNNSTFLECAPKSPQASIKWLLQKDKDRRKEVKLNERIIATSQGLLIRSVQDSDQGLYHCIATENSFKQTIAKINFKVLDSEMVAVVTDKWSPWTWAGSVRALPFHPKDILGAFSHSEMQLINQYCKDTRQQQQLGEEPQKMRGDYGKLKALINSRKSRNRRNQLPES
notes: written as in the name; Partially purified conditioned medium; not shown: secreted alkaline phosphatase of vector APtag-4
For the molecule B2, the Kd – broadly, the equilibrium constant for the complex coming apart – in assay [4] was 18 nM; in assay [5] it was 5 nM; in assay [6] it was 0.29 nM.

B3: Sema IV-AP fusion protein (human Sema IV fused to alkaline phosphatase) (ligand, UniProt Q13275 19-785, looked up)
chain: SFPTQDHLPATPRVRLSFKELKATGTAHFFNFLLNTTDYRILLKDEDHDRMYVGSKDYVLSLDLHDINREPLIIHWAASPQRIEECVLSGKDVNGECGNFVRLIQPWNRTHLYVCGTGAYNPMCTYVNRGRRAQATPWTQTQAVRGRGSRATDGALRPMPTAPRQDYIFYLEPERLESGKGKCPYDPKLDTASALINEELYAGVYIDFMGTDAAIFRTLGKQTAMRTDQYNSRWLNDPSFIHAELIPDSAERNDDKLYFFFRERSAEAPQSPAVYARIGRICLNDDGGHCCLVNKWSTFLKARLVCSVPGEDGIETHFDELQDVFVQQTQDVRNPVIYAVFTSSGSVFRGSAVCVYSMADIRMVFNGPFAHKEGPNYQWMPFSGKMPYPRPGTCPGGTFTPSMKSTKDYPDEVINFMRSHPLMYQAVYPLQRRPLVVRTGAPYRLTTIAVDQVDAADGRYEVLFLGTDRGTVQKVIVLPKDDQELEELMLEEVEVFKDPAPVKTMTISSKRQQLYVASAVGVTHLSLHRCQAYGAACADCCLARDPYCAWDGQACSRYTASSKRRSRRQDVRHGNPIRQCRGFNSNANKNAVESVQYGVAGSAAFLECQPRSPQATVKWLFQRDPGDRRREIRAEDRFLRTEQGLLLRALQLSDRGLYSCTATENNFKHVVTRVQLHVLGRDAVHAALFPPLSMSAPPPPGAGPPTPPYQELAQLLAQPEVGLIHQYCQGYWRHVPPSPREAPGAPRSPEPQDQKKPRNRRHHPPDT
notes: written as in the name; Partially purified conditioned medium; also called Sema IV/Sema 3F; not shown: secreted alkaline phosphatase in pSecTag-A
With B3, the dissociation constant (Kd) in assay [4] was 5 nM; in assay [5] it was 30 nM; in assay [6], 0.09 nM.
